How the values were obtained:
Assay in all cases: pull-down
GST-eIF3a (783–1382) = GST-eIF3a (783–1382) (human, UniProt Q14152 783-1382)
GST-DHX29 (248–594) = target: T1, GST-DHX29 (248–594) (UniProt Q7Z478 248-594)
T1 sequence (looked up): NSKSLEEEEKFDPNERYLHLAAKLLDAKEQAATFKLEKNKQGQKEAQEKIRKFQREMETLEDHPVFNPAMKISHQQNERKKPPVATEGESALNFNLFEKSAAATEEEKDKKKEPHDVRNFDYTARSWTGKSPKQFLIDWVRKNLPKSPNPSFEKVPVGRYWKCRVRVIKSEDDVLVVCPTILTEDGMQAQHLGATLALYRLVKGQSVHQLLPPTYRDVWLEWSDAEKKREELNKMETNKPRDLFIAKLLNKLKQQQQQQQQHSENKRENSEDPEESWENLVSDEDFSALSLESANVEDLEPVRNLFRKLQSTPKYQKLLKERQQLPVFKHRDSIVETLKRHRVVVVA

DHX29 (FL), His-tagged = target: T2, DHX29 (FL), His-tagged (UniProt Q7Z478 1-1369)
T2 sequence (looked up): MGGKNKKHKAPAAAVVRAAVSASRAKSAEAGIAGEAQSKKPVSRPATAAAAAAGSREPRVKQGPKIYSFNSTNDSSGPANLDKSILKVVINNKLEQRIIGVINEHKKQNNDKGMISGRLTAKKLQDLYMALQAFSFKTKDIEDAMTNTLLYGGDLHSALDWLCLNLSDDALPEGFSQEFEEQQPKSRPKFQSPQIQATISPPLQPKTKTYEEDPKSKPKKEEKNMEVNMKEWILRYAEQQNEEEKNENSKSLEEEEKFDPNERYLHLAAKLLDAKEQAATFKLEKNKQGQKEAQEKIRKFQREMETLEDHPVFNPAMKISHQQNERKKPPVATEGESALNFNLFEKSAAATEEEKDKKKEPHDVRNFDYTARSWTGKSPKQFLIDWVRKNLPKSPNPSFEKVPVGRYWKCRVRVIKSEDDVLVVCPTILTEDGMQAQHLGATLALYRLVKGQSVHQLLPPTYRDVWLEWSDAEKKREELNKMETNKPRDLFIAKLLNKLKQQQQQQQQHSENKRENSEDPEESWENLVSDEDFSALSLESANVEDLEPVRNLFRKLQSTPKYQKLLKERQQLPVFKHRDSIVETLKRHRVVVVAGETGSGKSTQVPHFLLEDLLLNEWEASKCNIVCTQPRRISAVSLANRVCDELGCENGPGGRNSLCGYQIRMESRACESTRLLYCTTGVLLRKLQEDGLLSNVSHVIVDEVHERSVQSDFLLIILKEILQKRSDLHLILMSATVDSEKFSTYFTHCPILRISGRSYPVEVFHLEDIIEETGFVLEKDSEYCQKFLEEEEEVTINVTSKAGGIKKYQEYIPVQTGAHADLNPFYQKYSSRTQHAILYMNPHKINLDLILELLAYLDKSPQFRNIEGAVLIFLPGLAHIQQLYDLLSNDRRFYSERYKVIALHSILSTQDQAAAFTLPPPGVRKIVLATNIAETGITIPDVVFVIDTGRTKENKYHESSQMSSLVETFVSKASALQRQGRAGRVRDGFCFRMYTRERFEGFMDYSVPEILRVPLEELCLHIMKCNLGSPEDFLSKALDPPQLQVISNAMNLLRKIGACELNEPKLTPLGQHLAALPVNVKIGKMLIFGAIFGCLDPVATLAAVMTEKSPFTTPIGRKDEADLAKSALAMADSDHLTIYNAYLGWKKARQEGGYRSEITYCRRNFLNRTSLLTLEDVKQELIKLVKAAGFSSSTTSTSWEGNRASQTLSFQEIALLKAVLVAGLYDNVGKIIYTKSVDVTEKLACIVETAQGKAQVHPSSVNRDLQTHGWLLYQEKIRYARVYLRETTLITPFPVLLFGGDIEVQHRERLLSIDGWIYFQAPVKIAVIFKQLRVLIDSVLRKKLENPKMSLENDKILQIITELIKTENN

Chain of GST-eIF3a (783–1382) (Q14152 783-1382): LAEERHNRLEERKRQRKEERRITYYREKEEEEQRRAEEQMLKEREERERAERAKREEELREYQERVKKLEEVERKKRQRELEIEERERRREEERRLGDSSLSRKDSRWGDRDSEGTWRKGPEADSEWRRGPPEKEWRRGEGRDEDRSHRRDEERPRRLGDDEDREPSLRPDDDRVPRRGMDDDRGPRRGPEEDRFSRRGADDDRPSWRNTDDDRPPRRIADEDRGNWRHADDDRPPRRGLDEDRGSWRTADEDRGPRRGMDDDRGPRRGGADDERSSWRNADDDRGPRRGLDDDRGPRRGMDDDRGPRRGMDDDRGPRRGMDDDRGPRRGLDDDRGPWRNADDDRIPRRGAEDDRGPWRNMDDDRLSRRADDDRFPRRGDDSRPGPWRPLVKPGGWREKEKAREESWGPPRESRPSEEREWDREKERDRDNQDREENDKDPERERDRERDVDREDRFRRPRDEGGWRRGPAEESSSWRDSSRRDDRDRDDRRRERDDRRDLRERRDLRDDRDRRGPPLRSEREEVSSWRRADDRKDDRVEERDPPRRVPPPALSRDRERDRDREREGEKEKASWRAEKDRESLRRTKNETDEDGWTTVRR

B1: DHX29 (1–247), His-tagged (domain or fragment, UniProt Q7Z478 1-247, looked up)
chain: MGGKNKKHKAPAAAVVRAAVSASRAKSAEAGIAGEAQSKKPVSRPATAAAAAAGSREPRVKQGPKIYSFNSTNDSSGPANLDKSILKVVINNKLEQRIIGVINEHKKQNNDKGMISGRLTAKKLQDLYMALQAFSFKTKDIEDAMTNTLLYGGDLHSALDWLCLNLSDDALPEGFSQEFEEQQPKSRPKFQSPQIQATISPPLQPKTKTYEEDPKSKPKKEEKNMEVNMKEWILRYAEQQNEEEKNE
- binding result (GST-eIF3a (783–1382)): binds

B2: eIF3b (1–300), His-tagged (domain or fragment, murine, UniProt Q8JZQ9 1-300, looked up)
chain: MQDAENVAVPEAAEERAEPARQQPASESPPTDEAAGSGGSEVGQTEDAEEDAEAGPEPEVRAKPAAQSEEETATSPAASPTPQSAERSPSQEPSAPGKAEAVGEQARGHPSAGAEEEGGSDGSAAEAEPRALENGEADEPSFSDPEDFVDDVSEEELLGDVLKDRPQEADGIDSVIVVDNVPQVGPDRLEKLKNVIHKIFSKFGKIINDYYPEEDGKTKGYIFLEYASPAHAVDAVKNADGYKLDKQHTFRVNLFTDFDKYMTISDEWDIPEKQPFKDLGNLRYWLEEAECRDQYSVIFE
- binding result (GST-DHX29 (248–594)): binds

B3: GST-eIF3b (161–264) (domain or fragment, murine, UniProt Q8JZQ9 161-264, looked up)
chain: VLKDRPQEADGIDSVIVVDNVPQVGPDRLEKLKNVIHKIFSKFGKIINDYYPEEDGKTKGYIFLEYASPAHAVDAVKNADGYKLDKQHTFRVNLFTDFDKYMTI
- binding result (DHX29 (FL), His-tagged): binds

From article PMC5113206 (RNA, 2016)
